Laboratory results as given in PMC2910265.

Target: MglA^+ of Thermus thermophilus (Thermus thermophilus)
Experiment: fluorescence polarisation

- fold higher affinity for MglA^+/mGppNHp than for MglA^+/GDP: 60 fold
Substance: MglB of Thermus thermophilus (natural protein)
